Laboratory results published in paper PMC9114370, “Heat shock protein Grp78/BiP/HspA5 binds directly to TDP-43 and mitigates toxicity associated with disease pathology” (Scientific Reports, 2022).
Several values for one entry are separate records, joined by “and”; a condition that tells them apart may be missing. Equal entries are not always repeated.

Experiments:
Details in all cases: both partners purified
[1] = target: T1, HspA5 substrate binding domain (SBD) (human, UniProt P11021 420-654); assay: MST; NTA-labelled TDP-43(102-269), HspA5 titrated, in the presence of UG6 RNA (increasing concentrations; concentration not given)
T1 construct: SBD approximately 200 amino acids long; vector pSpeedET; also called HspA5-SBD; Grp78; source: E. coli BL21-Codon plus, purified (cobalt IMAC, TEV cleavage)

[2] = target: T2, HspA1A substrate binding domain (SBD) (human, UniProt P0DMV8 395-641); assay: MST; 50 nM labelled TDP-43 construct (RED-NTA labelling), ranging concentrations of Hsp70 SBD titrated, MST buffer, premium capillaries, 40% LED, medium MST power; no RNA
T2 construct: SBD approximately 200 amino acids long; vector pSpeedET; also called Hsp70 SBD; source: E. coli BL21-Codon plus, purified (cobalt IMAC, TEV cleavage)

[3] = target: T1, HspA5 substrate binding domain (SBD); assay: as above

T1 sequence (P11021 420-654): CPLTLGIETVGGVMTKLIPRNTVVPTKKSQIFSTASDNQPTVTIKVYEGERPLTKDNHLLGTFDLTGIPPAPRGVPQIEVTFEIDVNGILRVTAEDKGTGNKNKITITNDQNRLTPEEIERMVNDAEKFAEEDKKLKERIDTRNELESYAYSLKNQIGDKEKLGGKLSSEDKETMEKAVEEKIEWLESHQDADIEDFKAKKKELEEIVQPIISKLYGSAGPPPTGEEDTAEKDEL
T2 sequence (P0DMV8 395-641): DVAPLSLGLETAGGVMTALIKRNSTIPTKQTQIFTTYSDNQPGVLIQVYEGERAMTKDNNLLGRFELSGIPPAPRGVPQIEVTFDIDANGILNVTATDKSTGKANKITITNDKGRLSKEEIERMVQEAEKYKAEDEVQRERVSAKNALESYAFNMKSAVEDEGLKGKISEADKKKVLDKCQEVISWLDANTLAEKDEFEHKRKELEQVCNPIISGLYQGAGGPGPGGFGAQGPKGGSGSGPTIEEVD

Kd [1]: 28.3 µM | Kd [2]: 2.35 µM | Kd [3]: 0.298 µM and 0.89 µM
B1: TDP43_(102-269)-His (domain or fragment, human, UniProt Q13148 102-269, looked up)
chain: KTSDLIVLGLPWKTTEQDLKEYFSTFGEVLMVQVKKDLKTGHSKGFGFVRFTEYETQVKVMSQRHMIDGRWCDCKLPNSKQSQDEPLRSRKVFVGRCTEDMTEDELREFFSQYGDVMDVFIPKPFRAFAFVTFADDQIAQSLCGEDLIIKGISVHISNAEPKHNSNRQ
modifications: labelled with Monolith Protein Labeling Kit RED-NTA
notes: also called RRM domain; RRM domains of TDP-43; source: recombinantly expressed, purified
